# Measured values taken from patent publication US20260125649A1, “MEDIUM COMPOSITION AND METHOD FOR CULTURING MESENCHYMAL STEM CELLS” (ACADEMIA SINICA, priority 2018, published 2026).
# B1: EpEX: extracellular domain of human EpCAM, 265 amino acids in length (SEQ ID NO: 2) (protein, listed as Homo sapiens)
# chain: MAPPQVLAFGLLLAAATATFAAAQEECVCENYKLAVNCFVNNNRQCQCTSVGAQNTVICSKLAAKCLVMKAEMNGSKLGRRAKPEGALQNNDGLYDPDCDESGLFKAKQCNGTSMCWCVNTAGVRRTDKDTEITCSERVRTYWIIIELKHKAREKPYDSKSLRTALQKEITTRYQLDPKFITSILYENNVITIDLVQNSSQKTQNDVDIADVAYYFEKDVKGESLFHSKKMDLTVNGEQLDLDPGQTLIYYVDEKAPEFSMQGLK
# Experiments:
# [1] = tested on: MSCs; experiment: Cell cycle progression by flow cytometry with PI staining; format: cell-based, human; conditions: EpEX, at 18 h; from 6.5% without EpEX
# Procedure: Phospho-EGFR (Tyr845) was detected by Western blotting. […] After treatment, cell cycle progression was investigated by flow cytometry with PI staining. Fraction of cells in each phase (G1, S, G2/M) of the cell cycle was evaluated. Cells that expressed EGFR shRNA or shLuc were treated with EpEX for 18 h. After treatment, cell cycle progression was investigated by flow cytometry with PI staining. Fraction of cells in each phase (G1, S, G2/M) of the cell cycle was evaluated. […] The protein expression of cell cycle regulators (cyclin D1, cyclin D2, cyclin E1) and pluripotency factors (Oct4, Sox2, c-Myc, Lin28) was examined by Western blotting. MSCs expressing EGFR shRNA were stimulated by EpEX. After treatment, the protein expression of cell cycle regulators (cyclin D1, cyclin E1, CDK4 and CDK9) and pluripotency factors (Oct4, in Sox2, c-Myc, and Lin 28) was examined by Western blotting. […] After treatment, the gene expression of pluripotency factors (Oct4, Sox2, c-Myc, Lin28 and EpCAM) was examined by qPCR.
# After treatment, the protein levels of total STAT3 and phospho-STAT3 (Tyr705) were examined by Western blotting. […] Cell cycle progression was investigated by flow cytometry with PI staining. Fraction of cells in each phase (G1, S, G2/M) of the cell cycle was evaluated. […] Fraction of cells in each phase (G1, S, G2/M) of the cell cycle was evaluated. […]
# [2] = tested on: MSCs; experiment: Osteogenesis of MSCs by Alizarin Red S staining; format: cell-based, human
# Procedure: Calcium precipitation was measured by Alizarin Red S (ARS) staining to probe the efficiency of osteogenesis. […] Quantification of osteogenesis, as measured by ARS staining, is shown for each group. MSCs were induced by osteogenetic medium and treated with EpEX at indicated doses. The gene expression of RUNX2 was examined by qPCR. […] ARS staining was performed to check the efficiency of osteogenesis. MSCs were pretreated with let-7 inhibitor and then treated with EpEX for 14 days during osteo-induction. ARS staining was performed to check the efficiency of osteogenesis. […] RUNX2 gene expression was measured by qPCR. MSCs were pretreated with let-7 inhibitor and induced by EpEX. RUNX2 gene expression was examined by qPCR. […] Upon EpEX stimulation, phosphorylation of EGFR-STAT3 signaling is induced and subsequently upregulates the level of Lin28 which inhibits let-7. When let-7 is inhibited, the transcription factor, HMGA2, is increased and binds to the promoters of Oct4 and Sox2. The EpEX-mediated increases of Oct4 and Sox2 can promote osteogenesis of MSCs during osteo-induction. […]
# After 14 days of osteogenic differentiation, cells were fixed with ice-cold 70% ethanol at −20° C. for 1 h and then washed with PBS. […] For quantification, the cells were incubated with 1 mL of […] buffer for 1 h to extract ARS, and the O.D. at 550 nm was recorded.
molecule,measurement,setting,value
B1,percentage of cells in G2/M phase,[1],29.3%
same,osteogenesis compared to controls,"[2]; EpEX treatment during osteo-induction, 14 days, ARS staining",4 fold
same,calcium precipitation (ARS staining),"[2]; EpEX, Day 14, vs non-treated controls",higher
